Reference: publication PMC3285539 (Nature, 2012)

B1: Rpt6 (natural protein)
chain: MTAAVTSSNIVLETHESGIKPYFEQKIQETELKIRSKTENVRRLEAQRNALNDKVRFIKDELRLLQEPGSYVGEVIKIVSDKKVLVKVQPEGKYIVDVAKDINVKDLKASQRVCLRSDSYMLHKVLENKADPLVSLMMVEKVPDSTYDMVGGLTKQIKEIKEVIELPVKHPELFESLGIAQPKGVILYGPPGTGKTLLARAVAHHTDCKFIRVSGAELVQKYIGEGSRMVRELFVMAREHAPSIIFMDEIDSIGSTRVEGSGGGDSEVQRTMLELLNQLDGFETSKNIKIIMATNRLDILDPALLRPGRIDRKIEFPPPSVAARAEILRIHSRKMNLTRGINLRKVAEKMNGCSGADVKGVCTEAGMYALRERRIHVTQEDFELAVGKVMNKNQETAISVAKLFK
B4: Rpn8 (recombinant lid) (natural protein)
chain: MSLQHEKVTIAPLVLLSALDHYERTQTKENKRCVGVILGDANSSTIRVTNSFALPFEEDEKNSDVWFLDHNYIENMNEMCKKINAKEKLIGWYHSGPKLRASDLKINELFKKYTQNNPLLLIVDVKQQGVGLPTDAYVAIEQVKDDGTSTEKTFLHLPCTIEAEEAEEIGVEHLLRDVRDQAAGGLSIRLTNQLKSLKGLQSKLKDVVEYLDKVINKELPINHTILGKLQDVFNLLPNLGTPDDDEIDVENHDRINISNNLQKALTVKTNDELMVIYISNLVRSIIAFDDLIENKIQNKKIQEQRVKDKQSKVSDDSESESGDKEATAPLIQRKNKKN

Columns and labels:
[1] = molecular target: T1, Rpn7 (S. cerevisiae, UniProt Q06103 1-429); assay: cryo-EM structure
T1 sequence: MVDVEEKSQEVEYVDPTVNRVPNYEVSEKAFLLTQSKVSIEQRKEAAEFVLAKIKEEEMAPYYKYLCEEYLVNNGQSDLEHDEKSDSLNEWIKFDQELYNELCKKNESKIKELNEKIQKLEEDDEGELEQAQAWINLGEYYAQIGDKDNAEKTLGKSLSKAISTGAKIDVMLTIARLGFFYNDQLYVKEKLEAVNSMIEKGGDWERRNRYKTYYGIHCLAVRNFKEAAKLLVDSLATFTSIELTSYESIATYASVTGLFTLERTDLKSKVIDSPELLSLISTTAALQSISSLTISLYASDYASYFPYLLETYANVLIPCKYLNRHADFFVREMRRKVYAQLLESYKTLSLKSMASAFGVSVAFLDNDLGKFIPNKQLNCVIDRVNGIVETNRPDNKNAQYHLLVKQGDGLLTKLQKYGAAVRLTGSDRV

[2] = molecular target: T2, Rpn2 (S. cerevisiae, UniProt P32565 1-945); assay: cryo-EM structure
T2 sequence: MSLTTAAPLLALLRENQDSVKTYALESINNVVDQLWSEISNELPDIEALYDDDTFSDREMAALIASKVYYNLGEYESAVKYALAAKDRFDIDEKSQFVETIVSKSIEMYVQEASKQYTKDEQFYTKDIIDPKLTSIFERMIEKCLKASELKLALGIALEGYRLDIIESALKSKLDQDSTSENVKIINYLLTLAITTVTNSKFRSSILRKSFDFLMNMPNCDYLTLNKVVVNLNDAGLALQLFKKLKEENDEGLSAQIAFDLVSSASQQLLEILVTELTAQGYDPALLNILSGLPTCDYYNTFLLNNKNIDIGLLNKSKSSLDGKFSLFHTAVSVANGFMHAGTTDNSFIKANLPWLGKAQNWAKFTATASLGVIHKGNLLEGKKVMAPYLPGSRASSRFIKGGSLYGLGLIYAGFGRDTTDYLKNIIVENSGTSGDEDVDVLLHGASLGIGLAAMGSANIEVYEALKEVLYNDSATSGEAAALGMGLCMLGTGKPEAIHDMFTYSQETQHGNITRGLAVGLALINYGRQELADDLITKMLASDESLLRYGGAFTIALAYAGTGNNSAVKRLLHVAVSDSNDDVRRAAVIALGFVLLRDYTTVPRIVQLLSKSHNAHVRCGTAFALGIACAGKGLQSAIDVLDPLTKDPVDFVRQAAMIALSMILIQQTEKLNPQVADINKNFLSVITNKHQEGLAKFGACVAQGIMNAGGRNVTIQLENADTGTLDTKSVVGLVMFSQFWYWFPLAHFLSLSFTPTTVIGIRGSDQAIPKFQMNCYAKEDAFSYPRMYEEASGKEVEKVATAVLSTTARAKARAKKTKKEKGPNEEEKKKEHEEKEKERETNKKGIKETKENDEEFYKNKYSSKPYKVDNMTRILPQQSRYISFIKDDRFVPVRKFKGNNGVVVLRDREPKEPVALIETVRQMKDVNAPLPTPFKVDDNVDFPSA

[3] = molecular target: T3, Rpt5 (S. cerevisiae, UniProt P33297 1-434); assay: cryo-EM structure
T3 sequence: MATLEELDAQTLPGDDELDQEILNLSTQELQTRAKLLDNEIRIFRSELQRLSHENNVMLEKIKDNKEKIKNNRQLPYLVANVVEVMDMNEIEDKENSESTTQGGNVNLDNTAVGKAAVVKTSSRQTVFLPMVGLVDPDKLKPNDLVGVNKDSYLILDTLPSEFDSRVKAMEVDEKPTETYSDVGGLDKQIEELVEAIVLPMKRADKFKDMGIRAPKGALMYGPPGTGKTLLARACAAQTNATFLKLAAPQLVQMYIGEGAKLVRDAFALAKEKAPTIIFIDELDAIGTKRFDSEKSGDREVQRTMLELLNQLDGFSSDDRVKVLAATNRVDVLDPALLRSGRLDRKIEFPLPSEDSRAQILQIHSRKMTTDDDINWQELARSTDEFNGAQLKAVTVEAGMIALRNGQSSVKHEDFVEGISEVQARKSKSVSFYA

[4] = molecular target: B1; assay: cryo-EM structure
[5] = molecular target: T4, Rpt3 (S. cerevisiae, UniProt P33298 1-428); assay: cryo-EM structure
T4 sequence: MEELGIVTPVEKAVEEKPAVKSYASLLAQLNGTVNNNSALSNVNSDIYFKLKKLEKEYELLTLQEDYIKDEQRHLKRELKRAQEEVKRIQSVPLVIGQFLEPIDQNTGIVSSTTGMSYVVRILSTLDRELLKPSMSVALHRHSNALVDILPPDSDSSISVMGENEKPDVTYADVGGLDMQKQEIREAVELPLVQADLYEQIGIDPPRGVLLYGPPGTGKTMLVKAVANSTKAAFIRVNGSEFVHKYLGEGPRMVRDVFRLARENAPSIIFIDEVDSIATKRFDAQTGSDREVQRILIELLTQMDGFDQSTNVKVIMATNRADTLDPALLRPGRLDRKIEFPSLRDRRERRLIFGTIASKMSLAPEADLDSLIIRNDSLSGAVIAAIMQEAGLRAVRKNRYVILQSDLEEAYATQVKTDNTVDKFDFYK

[6] = molecular target: T5, Rpn9 (recombinant lid) (S. cerevisiae, UniProt Q04062 1-393); assay: negative-stain electron microscopy, 3D reconstruction
T5 sequence: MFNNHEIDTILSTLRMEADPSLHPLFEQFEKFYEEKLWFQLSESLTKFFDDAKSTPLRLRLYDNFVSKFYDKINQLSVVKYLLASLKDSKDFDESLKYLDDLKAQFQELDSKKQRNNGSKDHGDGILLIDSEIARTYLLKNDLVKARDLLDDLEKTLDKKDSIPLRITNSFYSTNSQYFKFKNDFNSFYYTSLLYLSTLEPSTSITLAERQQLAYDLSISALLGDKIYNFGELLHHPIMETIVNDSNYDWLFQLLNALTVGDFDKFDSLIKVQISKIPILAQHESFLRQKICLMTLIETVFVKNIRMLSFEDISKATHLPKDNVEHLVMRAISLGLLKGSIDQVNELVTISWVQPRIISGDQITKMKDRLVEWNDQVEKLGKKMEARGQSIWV

[7] = molecular target: B4; assay: as above
[8] = molecular target: T6, Rpn5 (recombinant lid) (S. cerevisiae, UniProt Q12250 1-445); assay: as above
T6 sequence: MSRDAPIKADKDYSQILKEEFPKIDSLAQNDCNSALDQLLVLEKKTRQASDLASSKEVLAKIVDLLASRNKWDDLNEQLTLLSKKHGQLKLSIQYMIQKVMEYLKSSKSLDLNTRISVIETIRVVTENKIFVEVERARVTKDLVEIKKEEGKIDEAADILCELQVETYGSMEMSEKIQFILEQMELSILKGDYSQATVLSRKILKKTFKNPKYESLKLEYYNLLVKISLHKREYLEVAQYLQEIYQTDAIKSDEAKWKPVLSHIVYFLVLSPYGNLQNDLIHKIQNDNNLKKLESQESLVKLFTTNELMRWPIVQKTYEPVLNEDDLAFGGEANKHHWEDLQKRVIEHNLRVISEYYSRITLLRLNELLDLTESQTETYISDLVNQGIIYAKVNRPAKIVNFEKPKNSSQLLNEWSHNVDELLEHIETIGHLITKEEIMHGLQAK

Question: What does the source list for B1?
Answer: binding result [1]: binds; binding result [2]: binds

B2: 20S core subunit α6 (natural protein)
chain: MFRNNYDGDTVTFSPTGRLFQVEYALEAIKQGSVTVGLRSNTHAVLVALKRNADELSSYQKKIIKCDEHMGLSLAGLAPDARVLSNYLRQQCNYSSLVFNRKLAVERAGHLLCDKAQKNTQSYGGRPYGVGLLIIGYDKSGAHLLEFQPSGNVTELYGTAIGARSQGAKTYLERTLDTFIKIDGNPDELIKAGVEAISQSLRDESLTVDNLSIAIVGKDTPFTIYDGEAVAKYI
Question: Does B2 bind [3]?
Answer: binds

B3: Rpn8 (natural protein)
chain: MSLQHEKVTIAPLVLLSALDHYERTQTKENKRCVGVILGDANSSTIRVTNSFALPFEEDEKNSDVWFLDHNYIENMNEMCKKINAKEKLIGWYHSGPKLRASDLKINELFKKYTQNNPLLLIVDVKQQGVGLPTDAYVAIEQVKDDGTSTEKTFLHLPCTIEAEEAEEIGVEHLLRDVRDQAAGGLSIRLTNQLKSLKGLQSKLKDVVEYLDKVINKELPINHTILGKLQDVFNLLPNLGTPDDDEIDVENHDRINISNNLQKALTVKTNDELMVIYISNLVRSIIAFDDLIENKIQNKKIQEQRVKDKQSKVSDDSESESGDKEATAPLIQRKNKKN
Question: What does the source list for B3?
Answer: binding result [4]: binds; binding result [5]: binds

Question: Does B4 bind [6]?
Answer: binds

B5: Rpn11-6xHis (recombinant lid) (enzyme)
chain: MERLQRLMMNSKVGSADTGRDDTKETVYISSIALLKMLKHGRAGVPMEVMGLMLGEFVDDYTVNVVDVFAMPQSGTGVSVEAVDDVFQAKMMDMLKQTGRDQMVVGWYHSHPGFGCWLSSVDVNTQKSFEQLNSRAVAVVVDPIQSVKGKVVIDAFRLIDTGALINNLEPRQTTSNTGLLNKANIQALIHGLNRHYYSLNIDYHKTAKETKMLMNLHKEQWQSGLKMYDYEEKEESNLAATKSMVKIAEQYSKRIEEEKELTEEELKTRYVGRQDPKKHLSETADETLENNIVSVLTAGVNSVAIK
Question: Does B5 bind [7]?
Answer: binds

Question: Does B5 bind [8]?
Answer: binds
